The record followed here is patent US20240318159.

The subject of the data set is mND1 TALE_L-BE_41-N(G108) + TALE_R-BE_41-C(G43) split base editor (synthetic). Nature of the data set: cell_activity. Particulars: m.2820G>A allele in mouse cells.

Turning to “CATTAGTAGAACGCA (double strand) [mND1 G2820 target]”, the activity is 56.4%.
